Data as given in the supplement of paper PMC9112550, “Optimization of the antimicrobial peptide Bac7 by deep mutational scanning” (BMC Biology, 2022).

Test system: Escherichia coli TOP10
Assay: shrunken log2 fold change of peptide-encoding DNA abundance (4.5 h post-induction vs induction); higher = less antimicrobial activity (less host growth inhibition)
Details: time post-induction: 4.5 h; library: site-saturation at positions 5, 18, 19, 20
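Also: peptides expressed intracellularly from a pBAD plasmid library in pooled LB shake-flask culture, induced with 0.3% L-arabinose, DNA abundance read by NGS, three biological replicates, DESeq2 with apeglm shrinkage.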

Row | Sequence | shrunken log2 fold change
1 | RRIRRRPPRLPRPRPRPHGSPRP | -0.0609
2 | RRIRTRPPRLPRPRPRPFHPPRP | -0.335
3 | RRIRFRPPRLPRPRPRPQGGPRP | 0.0852
4 | RRIRNRPPRLPRPRPRPWRHPRP | -0.109
5 | RRIRTRPPRLPRPRPRPTKGPRP | -0.183
6 | RRIRYRPPRLPRPRPRPAYLPRP | -0.244
7 | RRIRCRPPRLPRPRPRPRTDPRP | 0.0321
8 | RRIRTRPPRLPRPRPRPKEDPRP | 0.262
9 | RRIRSRPPRLPRPRPRPTCIPRP | 0.0869
10 | RRIRNRPPRLPRPRPRPGVKPRP | -0.117
11 | RRIRLRPPRLPRPRPRPCIYPRP | -1.16
12 | RRIRCRPPRLPRPRPRPCVVPRP | -0.474
13 | RRIRNRPPRLPRPRPRPGGDPRP | 0.00185
14 | RRIRWRPPRLPRPRPRPDPLPRP | 0.221
15 | RRIRHRPPRLPRPRPRPDFWPRP | 0.372
16 | RRIRFRPPRLPRPRPRPLSTPRP | -0.47
17 | RRIRQRPPRLPRPRPRPSASPRP | 0.0788
18 | RRIRSRPPRLPRPRPRPSMHPRP | 0.402
19 | RRIRNRPPRLPRPRPRPQMQPRP | -0.0154
20 | RRIRPRPPRLPRPRPRPAMYPRP | 0.0514
21 | RRIRWRPPRLPRPRPRPIKRPRP | 0.21
22 | RRIRTRPPRLPRPRPRPCEPPRP | -0.0796
23 | RRIRSRPPRLPRPRPRPGNAPRP | 0.119
24 | RRIRGRPPRLPRPRPRPENHPRP | 0.455
25 | RRIRERPPRLPRPRPRPANYPRP | -0.0934

Row | Sequence | shrunken log2 fold change
26 | RRIRMRPPRLPRPRPRPNVIPRP | -0.117
27 | RRIRYRPPRLPRPRPRPQYFPRP | -1.64
28 | RRIRQRPPRLPRPRPRPFESPRP | -0.00719
29 | RRIRVRPPRLPRPRPRPDYSPRP | -0.107
30 | RRIRIRPPRLPRPRPRPNAYPRP | -0.243
31 | RRIRNRPPRLPRPRPRPALRPRP | 0.0951
32 | RRIRYRPPRLPRPRPRPPCMPRP | -0.315
33 | RRIRERPPRLPRPRPRPDHNPRP | -0.897
34 | RRIRYRPPRLPRPRPRPTAGPRP | 0.111
35 | RRIRLRPPRLPRPRPRPAFFPRP | 0.406
36 | RRIRKRPPRLPRPRPRPMLSPRP | -0.227
37 | RRIRVRPPRLPRPRPRPYPYPRP | -0.0982
38 | RRIRFRPPRLPRPRPRPSAKPRP | 0.319
39 | RRIRWRPPRLPRPRPRPIKPPRP | -0.0158
40 | RRIRNRPPRLPRPRPRPMYCPRP | -0.268
41 | RRIRRRPPRLPRPRPRPFGRPRP | 0.114
42 | RRIRRRPPRLPRPRPRPFWPPRP | 0.312
43 | RRIRRRPPRLPRPRPRPVDPPRP | 0.253
44 | RRIRERPPRLPRPRPRPQALPRP | -0.378
45 | RRIRGRPPRLPRPRPRPSSMPRP | -0.0636
46 | RRIRQRPPRLPRPRPRPAEFPRP | -0.0119
47 | RRIRGRPPRLPRPRPRPNTFPRP | 0.00502
48 | RRIRTRPPRLPRPRPRPHSHPRP | -0.626
49 | RRIRGRPPRLPRPRPRPPMVPRP | 0.277
50 | RRIRPRPPRLPRPRPRPGYVPRP | -0.401

Row | Sequence | shrunken log2 fold change
51 | RRIRRRPPRLPRPRPRPKAMPRP | 0.431
52 | RRIRTRPPRLPRPRPRPSFLPRP | -0.586
53 | RRIRKRPPRLPRPRPRPNIMPRP | -0.189
54 | RRIRSRPPRLPRPRPRPDFNPRP | -0.411
55 | RRIRIRPPRLPRPRPRPNQLPRP | -0.136
56 | RRIRSRPPRLPRPRPRPWAWPRP | -0.131
57 | RRIRGRPPRLPRPRPRPFSEPRP | 0.144
58 | RRIRHRPPRLPRPRPRPTKYPRP | -0.345
59 | RRIRPRPPRLPRPRPRPHENPRP | -0.0875
60 | RRIRIRPPRLPRPRPRPQEMPRP | -0.379
61 | RRIRLRPPRLPRPRPRPLTPPRP | 0.62
62 | RRIRPRPPRLPRPRPRPFHLPRP | -0.54
63 | RRIRGRPPRLPRPRPRPNGHPRP | 0.197
64 | RRIRHRPPRLPRPRPRPKQIPRP | -0.0133
65 | RRIRYRPPRLPRPRPRPMILPRP | -0.287
66 | RRIRIRPPRLPRPRPRPAVQPRP | -0.107
67 | RRIRVRPPRLPRPRPRPHDTPRP | -0.212
68 | RRIRMRPPRLPRPRPRPVHGPRP | 0.32
69 | RRIRLRPPRLPRPRPRPRDWPRP | 0.847
70 | RRIRNRPPRLPRPRPRPDQTPRP | -0.0645
71 | RRIRMRPPRLPRPRPRPINNPRP | -0.347
72 | RRIRIRPPRLPRPRPRPGVYPRP | -0.39
73 | RRIRDRPPRLPRPRPRPTTPPRP | 0.351
74 | RRIRKRPPRLPRPRPRPLDQPRP | 0.257
75 | RRIRGRPPRLPRPRPRPVCWPRP | 1.16

Row | Sequence | shrunken log2 fold change
76 | RRIRHRPPRLPRPRPRPHWGPRP | -0.123
77 | RRIRMRPPRLPRPRPRPANGPRP | 0.094
78 | RRIRPRPPRLPRPRPRPVHCPRP | 0.046
79 | RRIRCRPPRLPRPRPRPTIRPRP | -0.312
80 | RRIRVRPPRLPRPRPRPSVFPRP | -0.126
81 | RRIRGRPPRLPRPRPRPIVCPRP | 0.356
82 | RRIRERPPRLPRPRPRPGDCPRP | -0.0777
83 | RRIRARPPRLPRPRPRPQHMPRP | -0.414
84 | RRIRERPPRLPRPRPRPAIGPRP | 0.0473
85 | RRIRHRPPRLPRPRPRPVDVPRP | -0.119
86 | RRIRPRPPRLPRPRPRPMPAPRP | 0.0935
87 | RRIRMRPPRLPRPRPRPETMPRP | 3.17
88 | RRIRMRPPRLPRPRPRPWTMPRP | 0.0064
89 | RRIRRRPPRLPRPRPRPTFYPRP | 0.191
90 | RRIRHRPPRLPRPRPRPLRSPRP | 0.549
91 | RRIRCRPPRLPRPRPRPNHIPRP | -0.994
92 | RRIRNRPPRLPRPRPRPDMPPRP | -0.244
93 | RRIRRRPPRLPRPRPRPKARPRP | 0.277
94 | RRIRARPPRLPRPRPRPMYTPRP | -0.0517
95 | RRIRARPPRLPRPRPRPDMLPRP | -0.0619
96 | RRIRDRPPRLPRPRPRPTHGPRP | 0.117
97 | RRIRPRPPRLPRPRPRPYYFPRP | -0.427
98 | RRIRDRPPRLPRPRPRPGCLPRP | 0.589
99 | RRIRHRPPRLPRPRPRPTLYPRP | -0.362
100 | RRIRDRPPRLPRPRPRPDAAPRP | 1.67

Row | Sequence | shrunken log2 fold change
101 | RRIRIRPPRLPRPRPRPGKAPRP | 0.039
102 | RRIRRRPPRLPRPRPRPSAHPRP | -0.0606
103 | RRIRGRPPRLPRPRPRPRKIPRP | 0.829
104 | RRIRGRPPRLPRPRPRPHKFPRP | 0.151
105 | RRIRDRPPRLPRPRPRPWTMPRP | -0.0209
106 | RRIRVRPPRLPRPRPRPMPPPRP | 0.44
107 | RRIRGRPPRLPRPRPRPLWNPRP | 0.116
108 | RRIRGRPPRLPRPRPRPFVGPRP | -0.26
109 | RRIRDRPPRLPRPRPRPKEYPRP | -0.0963
110 | RRIRFRPPRLPRPRPRPQVYPRP | -0.167
111 | RRIRCRPPRLPRPRPRPPGNPRP | 0.0392
112 | RRIRSRPPRLPRPRPRPTVDPRP | 0.16
113 | RRIRHRPPRLPRPRPRPMFSPRP | -0.256
114 | RRIRARPPRLPRPRPRPDENPRP | 1.2
115 | RRIRERPPRLPRPRPRPMSPPRP | -0.0381
116 | RRIRTRPPRLPRPRPRPCGIPRP | 0.0859
117 | RRIRMRPPRLPRPRPRPICAPRP | 0.486
118 | RRIRFRPPRLPRPRPRPQYMPRP | -1.77
119 | RRIRIRPPRLPRPRPRPNDAPRP | -0.182
120 | RRIRKRPPRLPRPRPRPIRWPRP | 0.0019
121 | RRIRERPPRLPRPRPRPPLKPRP | 0.322
122 | RRIRTRPPRLPRPRPRPGVYPRP | -0.116
123 | RRIRVRPPRLPRPRPRPAMAPRP | 0.418
124 | RRIRSRPPRLPRPRPRPVILPRP | -0.0746
125 | RRIRHRPPRLPRPRPRPIRLPRP | -0.0644

Row | Sequence | shrunken log2 fold change
126 | RRIRRRPPRLPRPRPRPAYMPRP | 0.0857
127 | RRIRQRPPRLPRPRPRPASHPRP | 0.189
128 | RRIRPRPPRLPRPRPRPMKKPRP | -0.0723
129 | RRIRNRPPRLPRPRPRPFVQPRP | -0.225
130 | RRIRTRPPRLPRPRPRPCFQPRP | -0.232
131 | RRIRMRPPRLPRPRPRPMCWPRP | 2.09
132 | RRIRYRPPRLPRPRPRPVPVPRP | -0.24
133 | RRIRLRPPRLPRPRPRPEHQPRP | -0.0896
134 | RRIRKRPPRLPRPRPRPVYQPRP | 0.131
135 | RRIRARPPRLPRPRPRPEGRPRP | 2.11
136 | RRIRMRPPRLPRPRPRPHIYPRP | -0.289
137 | RRIRKRPPRLPRPRPRPDALPRP | 0.132
138 | RRIRWRPPRLPRPRPRPKWPPRP | 0.477
139 | RRIRKRPPRLPRPRPRPCFWPRP | 0.42
140 | RRIRNRPPRLPRPRPRPNCDPRP | -0.237
141 | RRIRPRPPRLPRPRPRPRQFPRP | 0.556
142 | RRIRKRPPRLPRPRPRPTQMPRP | 0.8
143 | RRIRHRPPRLPRPRPRPCNAPRP | 0.0746
144 | RRIRQRPPRLPRPRPRPYMSPRP | -0.655
145 | RRIRPRPPRLPRPRPRPSMMPRP | -0.412
146 | RRIRTRPPRLPRPRPRPLLHPRP | 0.0651
147 | RRIRQRPPRLPRPRPRPDSSPRP | 0.00797
148 | RRIRYRPPRLPRPRPRPECNPRP | -0.0877
149 | RRIRTRPPRLPRPRPRPDKWPRP | 0.0238
150 | RRIRDRPPRLPRPRPRPMLKPRP | 0.111
